B1: SDF-1(1-8)2-lysine bridge dimer (peptide)
peptide: KPVSLSYRK-NH2
modifications: also: dimer: two chains' Arg8 amide-linked to one bridging lysine (alpha and epsilon amino groups)
notes: Two SDF-1(1-8) chains joined through one lysine amide; also called CTCE9904
B2: SDF-1(1-9)2-C9/C9-cysteine dimer (peptide)
peptide: KPVSLSYRC
modifications: also: homodimer via disulphide between Cys9 of the two chains
notes: Homodimer of SDF-1(1-9), with free acid C-termini; also called CTCE9901
B3: SDF-1(1-17) (peptide)
peptide: KPVSLSYRCPCRFFESH
notes: Linear peptide, free acid; also called CTCE9902

Bridges are numbered along the chain shown (N, C = ends). Where no end group is shown, it is not given here.

The target in the first assay is T1, CXC chemokine receptor 4 (CXCR4) (UniProt P61073 1-352, limits assumed).
T1 construct: whole, on cells; Endogenous receptor on CEM and THP-1 cells; also called SDF-1 receptor; fusin
T1 sequence (P61073 whole entry): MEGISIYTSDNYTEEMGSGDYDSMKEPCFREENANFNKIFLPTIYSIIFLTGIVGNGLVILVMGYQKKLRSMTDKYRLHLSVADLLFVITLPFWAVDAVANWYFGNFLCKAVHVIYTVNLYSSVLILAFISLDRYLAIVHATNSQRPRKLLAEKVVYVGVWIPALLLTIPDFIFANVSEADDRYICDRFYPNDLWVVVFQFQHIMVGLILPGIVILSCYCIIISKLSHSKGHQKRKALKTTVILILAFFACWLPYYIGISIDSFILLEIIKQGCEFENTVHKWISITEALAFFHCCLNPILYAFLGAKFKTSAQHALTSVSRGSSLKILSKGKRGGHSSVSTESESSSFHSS
Nature of the assay: competition against 4 nM 125I-SDF-1 on CEM cells (FIG. 2B). The method, then:
SDF-1 and the indicated analogs (competing ligands, described in Examples) were added at the concentrations illustrated in the presence of 4 nM ¹²⁵I-SDF-1. CEM cells were assessed for ¹²⁵I-SDF-1 binding following 2 hr of incubation. The results are expressed as percentages of the maximal specific binding that was determined without competing ligand, and are the mean of three independent experiments.
A competitive dose response for binding to the SDF-1 receptor by native SDF-1 and the CXCR4 agonists against ¹²⁵I-SDF-1 is shown in FIGS. 2A and 2B respectively. A concentration-dependent inhibition of ¹²⁵I-SDF-1 is illustrated in FIG. 2A, indicating the affinity of SDF-1 for the receptor. […] SDF-1 and the indicated analogs (competing ligands) were added at the concentrations illustrated in the presence of 4 nM ¹²⁵I-SDF-1. CEM cells were assessed for ¹²⁵I-SDF-1 binding following 2 hr of incubation. The results are expressed as percentages of the maximal specific binding that was determined without competing ligand, and are the mean of three independent experiments. The inhibition of ¹²⁵I-SDF-1 by SDF-1 and the SDF-1 analogs is indicative of CXCR4 receptor binding. The compounds illustrated in the figure are as follows: SDF-1(1-14)-(G)₄-SDF-1(55-67)-K20/E24-cyclic amide (CTCE0021), SDF-1(1-14)-(G)₄-SDF-1(55-67)-E24/K28-cyclic amide (CTCE0022), SDF-1(1-9)₂-C9/C9-cysteine dimer (CTCE9901), SDF-1(1-17) (CTCE9902), SDF-1(1-8)₂-lysine bridge dimer (CTCE9904) and SDF-1(1-14)-(G)₄-SDF-1(55-67) amide (CTCE0017).
With B1, the binding result is listed as “binds”.
Turning to B2, the binding result is on record as “binds”.
With B3, the binding result is reported as “binds”.

In another assay the target is T1, CXC chemokine receptor 4 (CXCR4). The assay can be described thus: cell-based or functional assay.
Take KPVSLSYRCPCRFFGGGGLKWIQEYLEKALN-OH (cysteine pairing not given here) [SDF-1(1-14)-(G)4-SDF-1(55-67) acid]: the “EC50 of [Ca2+]i mobilization, fura-2,AM loaded THP-1 cells” value is 188 nM.
The same measure, in the same setting: next, KPVSLSYRCPCRFFGGGGLKWIQEYLEKALN-NH2 (lactam 20-24; cysteine pairing not given here) [SDF-1(1-14)-(G)4-SDF-1(55-67)-K20/E24-cyclic amide]: 148 nM; KPVSLSYRCPCRFFGGGGLKWIQEYLEKALN-NH2 (lactam 24-28; cysteine pairing not given here) [SDF-1(1-14)-(G)4-SDF-1(55-67)-E24/K28-cyclic amide]: 106 nM.

The record behind these values is patent US20020165123A1 (published 2002).
